# In patent US7582290:
# Key:
# [1] = target: Elongation factor 2 (EF-2) with glycine to arginine mutation at codon 705, in DPL cells (derived from PER.C6) (human) (UniProt P13639); test: cell-based or functional assay
# [2] = target: Elongation factor 2 (EF-2), wild type, endogenous in PER.C6 and 293 cells (human) (UniProt P13639); test: cell-based or functional assay
substance,measurement,setting,value
Diphtheria toxin (DT) (from UniProt P00588 33-567) (enzyme),cell growth in the presence of DT (DPLR1 cells),[1],100 pM
same,cell survival in the presence of DT (DPLR3 cells),[1],10 nM
same,resistance of cells to DT (DPL cells),[1],1 nM
same,cell death in the presence of DT (293 wt cells),[2],100 pM
same,cell death in the presence of DT (PER.C6 cells),[2],100 pM
same,cell death within 24 hrs in the presence of DT (PER.C6 and 293 cells),[2],10 pM
